Source: PMC6317155, “Identification of Small Peptides that Inhibit NADPH Oxidase (Nox2) Activation” (Antioxidants, 2018)

T1: aiPLA2 activity of recombinant human Prdx6 (Homo sapiens, UniProt P30041)
T1 sequence (P30041 1-224): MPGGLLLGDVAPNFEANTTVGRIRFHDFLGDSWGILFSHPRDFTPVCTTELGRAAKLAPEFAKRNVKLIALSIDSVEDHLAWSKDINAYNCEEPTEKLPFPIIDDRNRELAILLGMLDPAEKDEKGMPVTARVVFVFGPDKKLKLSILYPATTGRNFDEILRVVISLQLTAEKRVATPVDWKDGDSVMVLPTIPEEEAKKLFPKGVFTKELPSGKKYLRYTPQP

T2: mouse peroxiredoxin 6 (Prdx6), endogenous in lung homogenate (mouse (endogenous in lung)) (UniProt O08709)
T2 sequence: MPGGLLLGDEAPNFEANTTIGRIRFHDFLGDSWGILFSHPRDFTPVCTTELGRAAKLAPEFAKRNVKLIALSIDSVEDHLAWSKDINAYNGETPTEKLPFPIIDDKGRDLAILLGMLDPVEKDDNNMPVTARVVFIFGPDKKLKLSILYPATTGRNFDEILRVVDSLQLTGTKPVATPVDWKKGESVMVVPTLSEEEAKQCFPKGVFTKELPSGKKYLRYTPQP

T3: recombinant human peroxiredoxin 6 (Prdx6) (human) (UniProt P30041)
T3 sequence: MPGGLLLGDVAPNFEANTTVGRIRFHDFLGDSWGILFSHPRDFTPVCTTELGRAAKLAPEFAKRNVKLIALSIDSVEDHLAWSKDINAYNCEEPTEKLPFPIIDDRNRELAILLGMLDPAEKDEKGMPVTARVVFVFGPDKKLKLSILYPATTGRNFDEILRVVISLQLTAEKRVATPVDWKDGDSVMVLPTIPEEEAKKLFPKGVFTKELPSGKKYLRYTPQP


Legend:
[1] = target: T1, aiPLA2 activity of recombinant human Prdx6; assay: aiPLA2 (PLA2) activity of recombinant human Prdx6 in vitro, 3H-DPPC liposome substrate; assay type: biochemical; details: for Concentration of peptide for inhibition of aiPLA2 activity by 50%: concentration corrected for purity of the PIP preparation, Figure 2, n = 3; for Activity (aiPLA2 of recombinant hPrdx6), deletion from N-term: peptides deleted from N-terminus of 16-aa rat-derived SP-A peptide, no-peptide control 94.8, 3H-DPPC liposomes, 60 min; for Activity (aiPLA2 of recombinant hPrdx6), deletion from N-term / Activity (aiPLA2 of recombinant hPrdx6), human-derived peptides: one assay done in duplicate; for Activity (aiPLA2 of recombinant hPrdx6), human-derived peptides: deletions from 16-aa human-derived SP-A peptide, no-peptide control 92.0
Description: The PLA2 activity of Prdx6 was measured as described previously. The substrate was dipalmitoylphosphatidylcholine (DPPC) with ^3H-9,10-palmitate in the sn-2 position of DPPC incorporated into lung surfactant-like liposomes as described above; substrate was incubated with enzyme for 60 min and activity was calculated from the liberation of ^3H-palmitate as measured by scintillation counting.
The effect of the PIP peptides on the aiPLA2 activity of human recombinant Prdx6 was determined by in vitro assay; the effective concentration of inhibitor was corrected for purity of the PIP preparation. Saturating concentrations of all three peptides (PIP-1, PIP-2, PIP-3) inhibited aiPLA2 activity by ~70% (Figure 2). The basis for the remaining 30% of activity that was not inhibited is unclear.

[2] = target: T2, mouse peroxiredoxin 6 (Prdx6), endogenous in lung homogenate (mouse (endogenous in lung))
[3] = target: T3, recombinant human peroxiredoxin 6 (Prdx6) (human)
[4] = target: T3, recombinant human peroxiredoxin 6 (Prdx6) (human); remark: listed apart in the source
[5] = target: T3, recombinant human peroxiredoxin 6 (Prdx6) (human); remark: listed apart in the source
[6] = target: T3, recombinant human peroxiredoxin 6 (Prdx6) (human); remark: listed apart in the source

Molecule | Activity (aiPLA2 of recombinant hPrdx6), deletion from N-term [1] [nmol/min/mg Prot.] | concentration of peptide for inhibition of aiPLA2 activity by 50% [4] [µg/mg Prdx6] | inhibition of the aiPLA2 activity of human recombinant Prdx6 in vitro against peptide concentration, up to saturating concentrations [4] [%] | molar stoichiometry of peptide to Prdx6 monomer worked out from the PIP to Prdx6 ratio at maximal inhibition of aiPLA2 activity (peptide to Prdx6 monomer, molar) [4] | also measured
LYDIRHQIL [PIP-3] |  |  |  |  | Inhibition of aiPLA2 activity of human recombinant Prdx6 [1]: ~ 70%; Concentration of peptide for inhibition of aiPLA2 activity by 50% ([1]; recombinant human Prdx6): ~ 10 µg/mg Prdx6
LYEIKHQIL [PIP-1] | 32.3 |  |  |  | Inhibition of aiPLA2 activity at saturating concentrations of peptide ([1]; recombinant human Prdx6, Figure 2, mean + SEM, n = 3): ~ 70%; Concentration of peptide for inhibition of aiPLA2 activity by 50% ([1]; recombinant human Prdx6): ~ 8.3 µg/mg Prdx6
QTELYEIKHQIL [12-aa N-terminal deletion of rat 16-aa peptide] | 31.5 |  |  |  | 
TLHDFRHQI [9-aa human peptide with C-terminal aa deleted] |  |  |  |  | Activity (aiPLA2 of recombinant hPrdx6), human-derived peptides [1]: 89.6 nmol/min/mg Prot.
TLHDFRHQIL [10-aa N-terminal deletion of human 16-aa peptide] |  |  |  |  | Activity (aiPLA2 of recombinant hPrdx6), human-derived peptides [1]: 31.5 nmol/min/mg Prot.
YEIKHQIL [8-aa N-terminal deletion of rat 16-aa peptide] | 94.4 |  |  |  | 
LHDFRHQIL [PLA2-inhibitory peptide 2 (PIP-2), human SP-A nine-aa peptide] |  | 6.6 | 70 | 1.5 | inhibition of PLA2 activity at pH 4 without Ca2+ (aiPLA2) of wild type mouse lung homogenate after addition of PIP-2 to the assay [2]: 91%; aiPLA2 activity of recombinant hPrdx6 with the peptide (no peptide: 92.0) (nmol/min/mg Prot.) [3]: 29.9
LYDIRHQIL [PLA2-inhibitory peptide 3 (PIP-3), hybrid of PIP-1 and PIP-2] |  | 10 | 70 | 1.5 | inhibition of aiPLA2 activity by the hybrid nine-aa peptide [5]: 70%
LYEIKHQIL [PLA2-inhibitory peptide 1 (PIP-1), rat/mouse SP-A nine-aa peptide] |  | 8.3 | 70 | 1.5 | aiPLA2 activity of recombinant hPrdx6 with the peptide (no peptide: 94.8; scrambled peptide: 93.5) (nmol/min/mg Prot.) [6]: 32.3
